Tests used:
Assay type in all cases: cell-based, Human
U937 cells [1] = assay: Growth and viability of U937 cells, trypan blue exclusion; details: U937, 170 nM (20 μg/ml)
From the text: FIG. […] The percentage of dead cells was estimated based on the trypan blue exclusion test. The percentage of cells in the respective phases was estimated flow cytometrically based on their DNA content. Apoptotic cells (Ap) were recognized as the cells with fractional DNA content (sub-G1), as previously described;
Human histiocytic lymphoma U-937 cells were purchased from American Type Culture Collection (Manassas, Va., USA) and were maintained in RPMI 1640 medium supplemented with 10% fetal bovine serum, 100 U/ml of penicillin, 100 μg/ml streptomycin and 2 mM glutamine (all from Life Technologies, Grand Island, N.Y., USA). The suspension cultures were passaged by re-seeding the cells at a density of 1×10^5 cells/ml. The cells were studied during their exponential and asynchronous growth, generally within 72 hours of their re-seeding in medium with fresh serum, before reaching density of 8×10^5 cells/ml. The cultures were periodically tested for Mycoplasma infection by staining of cytocentrifuge preparations with the DNA fluorochrome 4,6-diamidino-2-phenylindole (DAPI; Molecular Probes, Eugene, Oreg., USA).
ONCONASE®, provided by Alfacell (Bloomfield, N.J., USA), was diluted in RPMI to the final concentrations as shown in the Results below and figure legends above. […]

p21^WAF1/CIP1 [2] = assay: p21^WAF1/CIP1 expression by flow cytometry in U937 cells; details: U937, 170 nM, 72 hours
Method: (§1) Following incubations in the absence or presence of ONCONASE®, the cells were washed with phosphate-buffered saline (PBS) and fixed in suspension in either ice-cold 80% ethanol or absolute methanol for up to 24 h. After fixation, the cells were washed twice with PBS and then suspended in 1 ml of 0.25% Triton X-100 (Sigma, St. Louis, Mo., USA) in PBS on ice for 5 min. The cells were then centrifuged (300 g, 5 min), the cell pellet suspended 100 μl PBS containing 0.5 μg of the anti-cyclin (or anti-CKI) mAb and 1% bovine serum albumin (BSA; Sigma), and incubated for 2 h at room temperature. […]
(§2) Cellular fluorescence was measured with the ELITE ESP flow cytometer/cell sorter (Coulter, Miami, Fla., USA) using either argon ion laser (emission at 488 nm) alone or combined with helium-cadmium laser (emitting UV light). In the first case, fluorescence signals were collected using the standard configuration of the flow cytometer (green fluorescence, representing directly or indirectly FITC-labeled antibodies; red fluorescence representing CYCHROME® tagged anti-pRB^T mAb). In the second case, DNA content was analyzed based on DAPI fluorescence (blue emission) excited by UV light, while the anti-pRB^P− mAb (FITC) and anti-pRB^T (Cy-Chrome®) related emission was excited with blue light laser.

U937 cells [3] = assay: Cell cycle distribution and apoptotic (sub-G1) cells by DNA content flow cytometry; details: U937, 170 nM
Method: FIG. 11 presents growth and viability curves (a) as well as cell cycle distribution (b) of U937 cells maintained in the absence (CTRL) and presence of 170 nM (2.0 μg/ml) ONCONASE® (ONC) for up to 72 h. The percentage of dead cells was estimated based on the trypan blue exclusion test. The percentage of cells in the respective phases was estimated flow cytometrically based on their DNA content. Apoptotic cells (Ap) were recognized as the cells with fractional DNA content (sub-G1), as previously described;
Anti-cyclin D3 mAb immunofluorescence in combination with DNA content was measured by multiparameter flow cytometry (a). The cells were growing either in the absence (Exp, exponential growth) or in the presence of 170 nM ONCONASE® for 48 hours (Onc). There were 48%, 38% and 14% of cells in G1, S, and G2/M in Exp culture compared with 64%, 24% and 13% cells in G1, S, and G2/M, respectively, in Onc culture. The scattergrams represent bivariate distributions of the cells with respect to their cyclin D3 vs. DNA content associated fluorescence intensities. The upper level of the isotype-matched control (mean fluorescence+3 standard deviations) is marked in the Exp panel with a dashed line. The bar plots represent the mean FITC (anti-cyclin D3 mAb) fluorescence values (arbitrary units) of the cells in different phases of the cycle (gated based on differences in DNA content as shown in the Exp panel), after subtraction of the background fluorescence, i.e., mean fluorescence of the same cells but stained with isotype-matched control IgG antibody. Western blots (b) show expression of cyclin D3 in control culture and in the culture treated with Onconase 48 h;
as §1, with “temperature. Anti-cyclin D3 (clone G107-565); anti-cyclin E (clone HE12); anti-p16^INK4a (clone G175-405); and […] (clone SX118) and anti-p27^KIP1 (clone G173-524) mAbs, all were obtained from PharMingen (San Diego, Calif., USA). After incubation with the respective mAbs the cells were rinsed with PBS containing 1% BSA and incubated with the FITC-conjugated goat anti-mouse IgG antibody (Molecular Probes) diluted 1:30 in PBS containing 1% BSA for 30 min at room temperature in the dark.” for “temperature.”
as §2, with “laser. […]” for “laser.”

p27^KIP1 [4] = assay: Western blot of p27^KIP1 in U937 cells; details: U937, 17 and 170 nM, 72 h; not detected in Exp cells
From the text: (§3) To reveal specificity of the antibodies that were used, a standard immunoblotting procedure was used on cellular lysates.

p21^WAF1/CIP1 [5] = assay: Western blot of p21^WAF1/CIP1 in U937 cells; details: U937, 170 nM, 72 hours
From the text: as §3

p27^KIP1 [6] = assay: p27^KIP1 expression by flow cytometry in U937 cells; details: U937, 170 nM, 72 hours
Method: as §1, §2

B1: ONCONASE®: basic protein of 12,000 MW isolated from oocytes or early embryos of Rana pipiens, homologous to pancreatic RNase A (protein, UniProt P22069 1-104, looked up)
Protein P-30: QDWLTFQKKHITNTRDVDCDNIMSTNLFHCKDKNTFIYSRPEPVKAICKGIIASKNVLTTSEFYLSDCNVTSRPCKYKLKKSTNKFCVTCENQAPVHFVGVGSC
cell proliferation suppressed (U937 cells [1]; initial 72 hours of treatment): approximately 50% | cells dead (U937 cells [1]; initial 72 hours, trypan blue): < 10% | increase in p21^WAF1/CIP1 (p21^WAF1/CIP1 [2]): Over four-fold | cells in G2/M (U937 cells [3]; 48 hours (Exp culture 14%)): 13% | cells in S (U937 cells [3]; 48 hours (Exp culture 38%)): 24% | cells in G1 (U937 cells [3]; 48 hours (Exp culture 48%)): 64% | proportion of cells in G0/1 phase (U937 cells [3]; after 72 h (from 47% in control)): ~70% | percentage of apoptotic cells (sub-G1) (U937 cells [3]; up to 72 h (from 2%)): 6% | p27^KIP1 bands, Western blot (p27^KIP1 [4]): strong bands | p21^WAF1/CIP1 band, Western blot (p21^WAF1/CIP1 [5]): band only in the ONCONASE®-treated cells | increase in p27^KIP1 (p27^KIP1 [6]): Over four-fold

Source: patent publication US7070943B2 (priority 1998, dated 2006)
